# ± gives the standard deviation.
# Assay: protein stability index of a GFP-peptide fusion (GPS, HEK-293T) (PSI 1-6); higher = more stable
# [1] = treatment: DMSO, c terminus: a fixed tail appended
# [2] = treatment: MLN4924 1 uM, 8 h, c terminus: a fixed tail appended
# 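Also: 24-mer peptide tiles fused after GFP, lentivirally expressed, FACS-sorted into six equal bins by GFP/DsRed ratio, decoded by Illumina sequencing, PSI is the read-weighted mean bin number.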
Sequence,protein stability index [1],protein stability index [2],"protein stability index (treatment: DMSO, c terminus: native)","protein stability index (treatment: MLN4924 1 uM, 8 h, c terminus: native)"
THVLSKEVQHLREEKSKQFLDLME [LRRC45],3.66 ± 0.26,3.81 ± 0.26,,
LSIYVGCDKYPHESQLPEEWENNR [CPXM2],2.98 ± 0.13,3.25 ± 0.4,,
QIGCKLPDDYRCSYRIHNGQKLVV [FBXO3],2.06 ± 0.26,2.18 ± 0.24,,
SRLMRRHKRRRRKQKVSRIERSSS [DVL3],4.46 ± 0.27,4.43 ± 0.09,,
KTPYDTSRRQEKSAGDADPENGEI [ELOA2],5.3 ± 0.22,5.51 ± 0.17,,
DLTSSSSDELSWIIELLEKDGMAF [ELF3],2.86 ± 0.34,3.19 ± 0.29,,
LSHLLGDAGSPYLIGLISDRLRRN [SPNS1],2.18 ± 0.36,2.16 ± 0.39,,
VDENDSHEGEDQFLSLEASTETLV [DLC1],5.66 ± 0.16,5.56 ± 0.2,,
AIVFTDGRAQDDVSEWASKAKANG [MATN2],3.92 ± 0.29,4.26 ± 0.34,,
YDYPEEEQLSGAGYRVSAALEEAD [EID1],5.38 ± 0.31,5.22 ± 0.32,,
RLAELLLLETDAGPAASEGAEQPP [GADD45A],3.26 ± 0.22,3.6 ± 0.56,,
NKRERSKLKNLRRKQRRRERWLQK [RNF180],4.32 ± 0.24,4.49 ± 0.38,,
NIVFGTGPRVGEALVSHPEVPLIS [ALDH8A1],2.9 ± 0.21,2.83 ± 0.27,,
APQHPAASALRTRMTGGRPPLPPP [DYRK1B],4.38 ± 0.15,4.41 ± 0.23,,
EHKGWYSWVLSMLYGFLLTFGFIT [CLPTM1],2.4 ± 0.56,2.62 ± 0.37,,
IIDCGDIVWSLAFGSSVPEKQSRC [WSB1],2.12 ± 0.24,2.35 ± 0.28,,
VRENVPRVLNSAKEKSSTVPIPTV [SOAT1],4.161 ± 0.036,4.16 ± 0.14,,
CARMLYNYGADTNTRNYEGQTPLA [ASB7],2.63 ± 0.28,2.62 ± 0.36,,
TGASFQKAQQEFAAGVFSNPAVRT [SCAMP3],3.73 ± 0.16,3.79 ± 0.25,,
RPRRRDGPEHATRLNGTAKGERRR [DVL3],5.06 ± 0.38,5.08 ± 0.42,,
VVEKLNLFLDLLQSYKDLCERHEK [SNX8],2.19 ± 0.32,2.23 ± 0.25,,
KEYDVARNTGAYTSSGLATASFRT [TEKT4],3.6 ± 0.26,3.69 ± 0.14,,
FSFRYQQELEEEIKELYENFCKHN [ATL3],2.57 ± 0.38,2.86 ± 0.44,,

Sequence,protein stability index [1],protein stability index [2],"protein stability index (treatment: DMSO, c terminus: native)","protein stability index (treatment: MLN4924 1 uM, 8 h, c terminus: native)"
GLGCKDLDLIFHVALPTEAEFQLV [TENT5C],2.26 ± 0.21,2.28 ± 0.45,,
GAAEEARRLEQRWGFGLEELYGLA [ACBD3],2.77 ± 0.37,2.99 ± 0.12,,
KRGFEVVYMTEPIDEYCVQQLKEF [HSP90AB1],2.56 ± 0.35,,,
ERPLPNPEGLDSDFLAVLSDYPSP [SLA],4.26 ± 0.39,4.58 ± 0.41,,
TYRSLLESEDCKLPCNPCATTNAS [KRT34],3.9 ± 0.25,4.09 ± 0.2,,
AQNAVRLHYGLPVVVKLLHPPSHW [CTNNB1],2.32 ± 0.23,2.23 ± 0.048,,
SQLAGQVNVEMDAAPGVDLTRVLA [KRT15],4 ± 0.18,3.94 ± 0.057,,
CKVGASSDPCGQLRPTLLLTSLHH [PNLIPRP1],2.1 ± 0.24,2.22 ± 0.097,,
MLLRKFAESKGTGREKPGPLDFEA [FCHO1],2.84 ± 0.034,2.86 ± 0.5,,
IFNYMRLGSTKLSDKDKAVGIFNT [OR3A1],2.1 ± 0.34,2.36 ± 0.25,,
ASVAMICAIASGSELSESAFGYFI [SLC29A1],2.94 ± 0.68,2.48 ± 0.52,,
AVPKRLLEIVGREGVSLTAVLTTH [HAGHL],2.5 ± 0.39,2.2 ± 0.6,,
YEAGVLAFYDVTGGMSHLHTFRAT [TRIM14],2.47 ± 0.45,2.07 ± 0.45,,
HTPGGQNQEILLPGGITSHQLLGL [TNXB],3.33 ± 0.22,3.47 ± 0.31,,
SQDERLDVLLTLKHTVKEHECKLT [IQUB],3.41 ± 0.3,3.41 ± 0.16,,
SKQTEKDPGVQELEALIDTIQKQL [EFHC1],3.83 ± 0.28,3.86 ± 0.3,,
VKYNSCADRPFSAPWWFWLSLTGV [POMT2],2.59 ± 0.35,2.72 ± 0.6,,
FLVLQSLLERQVEMTPEKFSVLME [FANCE],2.13 ± 0.39,2.11 ± 0.3,,
PRRCHSAPPQGSCGDELPWTLQRR [PLEKHN1],4.79 ± 0.15,4.7 ± 0.23,,
VSIIDTELKVKDSQPIDLSACTVA [TRIP13],3.28 ± 0.45,3.33 ± 0.29,,
QERSRVLNQVADLLEQSLEEFAQA [ALDH8A1],3.94 ± 0.28,4.26 ± 0.19,,
QLVEMTGLSPRVIRVWFQNKRCKD [ISL2],2.47 ± 0.4,2.95 ± 0.43,,
SLTDDKYDVAMNRAKDLVELDPEV [GOLPH3L],5.37 ± 0.16,5.4 ± 0.26,,

Sequence,protein stability index [1],protein stability index [2],"protein stability index (treatment: DMSO, c terminus: native)","protein stability index (treatment: MLN4924 1 uM, 8 h, c terminus: native)"
SRLNLTGLGYFSCHSHTVVQDYSY [CCDC3],2.12 ± 0.37,2.18 ± 0.11,,
KAQRDYELKKAAYDIEVNTRRAQA [FLOT1],4.17 ± 0.11,4.44 ± 0.085,,
GAYIGEGRVEVLKNGEWGTVCDDK [LOXL2],4.99 ± 0.36,,,
LDLKGNNLRAAGAEALGKLLQQNK [LRRC45],4.39 ± 0.19,4.27 ± 0.097,,
MALSNHYRSEDLLDVDTAAGGFQQ [FBXO3],4.03 ± 0.18,4.04 ± 0.13,,
MVFEVLGHHLLKWIIKSNYQGLPV [SRPK2],2.91 ± 0.33,3.12 ± 0.27,,
PRSHFTTPAPMSSAWKTVACGGTR [MYBL2],2.77 ± 0.32,2.84 ± 0.17,,
EERVALNTEIEKLGRSIVSSPQGK [PKD2L1],5.06 ± 0.16,5.15 ± 0.32,,
YTSAGTYGLDSVKKKCLEWLLNNL [GMCL1],2.17 ± 0.19,2.16 ± 0.26,,
VERILARGENLEHLRNKTEDLEAT [VAMP8],5.33 ± 0.2,5.37 ± 0.14,,
GQMSTPETPQPSPPGGSGSEPYKL [HNF4A],5.16 ± 0.21,5.17 ± 0.19,,
PDKKKRPRRSLSISKNKKKASNSI [FAN1],4.56 ± 0.2,4.76 ± 0.068,,
ILVTKVEEPSKYGVVVCEADTGRI [GMPPB],2.75 ± 0.18,2.91 ± 0.22,,
SFRENWQRAWVRALNEQACRNGSS [C2CD2L],2.7 ± 0.24,2.45 ± 0.49,,
TAGEMVFVYENAKEGARNIRTSER [BTBD10],3.94 ± 0.21,3.98 ± 0.14,,
EAVRQEMRRQEPLPPPPPPSRGGN [WAS],5.18 ± 0.21,5.19 ± 0.11,,
QFYGYLSQQQNMMQDYVRTGTYQR [CARM1],2.47 ± 0.086,2.72 ± 0.22,,
ATGKHYGASSCDGCKGFFRRSVRK [HNF4A],3.35 ± 0.19,3.73 ± 0.21,,
HEAFKDELKTFRLKTRSWAGERSR [CDC25B],3.57 ± 0.3,3.8 ± 0.22,,
LFDFDLEVKPVLEVLVGKTIEQSL [RSPH3],2.48 ± 0.42,2.42 ± 0.039,,
YFLRGSLPWQGLKADTLKERYQKI [CSNK1G3],2.17 ± 0.14,2.14 ± 0.39,,
DLKNVKSKIGSTDNIKYQPKGGQV [MAP2],3.24 ± 0.16,3.54 ± 0.32,,
VSITLLALVYLPGVIAAIVQLHNG [STEAP1],3.5 ± 0.33,3.11 ± 0.14,,

Sequence,protein stability index [1],protein stability index [2],"protein stability index (treatment: DMSO, c terminus: native)","protein stability index (treatment: MLN4924 1 uM, 8 h, c terminus: native)"
GFEHYDLFFIDGSTPSDNIVRRFL [CDC14A],2.12 ± 0.24,2.16 ± 0.25,,
SARFWIPGEPNNAGNNEHCGNIKA [CD207],4.03 ± 0.47,4.18 ± 0.41,,
EKEAKDLTELVQRRITYLQNPKDC [FUT8],4.76 ± 0.17,4.9 ± 0.13,,
HMNVEALPEWISCLIQKAQWTVGK [RNF180],2.32 ± 0.51,2.19 ± 0.34,,
ASKLKETSPLTAEKLCIYTDNSIK [CCND2],4 ± 0.18,4.05 ± 0.092,,
KAYGWCSELIRHRRVHARKEPSH [ZNF232],,,2.75 ± 0.2,2.51 ± 0.44
LWCANILGYAVSTFAMVKGYFFPT [DHCR7],4.05 ± 0.23,3.83 ± 0.12,,
YRSPEPDPYLSYRWKRRRSYSREH [CLK3],3.55 ± 0.33,3.71 ± 0.12,,
LSSEVLVGDLMSPFDQSGLGAEES [ATF4],5 ± 0.48,4.84 ± 0.18,,
PKPEPPQLVLAYDYSREVNTTEEL [FEM1A],5.03 ± 0.19,4.94 ± 0.31,,
IFLYARPNSTFPIDKSMTVVLTFI [OR4A15],2.84 ± 0.37,3 ± 0.3,,
NFKPRGYSECIVTVGGEERVSRKP [GAN],4.14 ± 0.28,4.32 ± 0.39,,
SEEGSWAQTLAYGDMNHEWIGNEW [PPFIA4],3.89 ± 0.41,3.8 ± 0.28,,
SITEMFGEFRTGKTQICHTLAVTC [RAD51],2.59 ± 0.33,2.05 ± 0.48,,
LSPMTASSFLSFAELFSYVLQDRA [FEM1A],2.47 ± 0.39,2.26 ± 0.13,,
LWFANAHLLSWFSPTIIFDNWIPL [DHCR7],2.92 ± 0.33,2.93 ± 0.16,,
GNTESELKKLAEENPDLQEAYIAK [GDAP1],5.51 ± 0.26,5.5 ± 0.26,,
PLDAGEYCVPRGNRRRFRVRQPIL [BEX1],3.47 ± 0.42,3.63 ± 0.25,,
RRVLPCIPSEEWPNPPTLQEAGLS [FAF2],3.9 ± 0.38,3.79 ± 0.18,,
DPDGLVATYISEVHEHDGHLYLGS [APMAP],3.87 ± 0.18,3.94 ± 0.39,,
